These results are taken from patent publication US20220332848A1.

One experiment addresses CD47 (UniProt Q08722). Put plainly: FACS binding CHO-K1 cells expressing CD47. Background: A flow cytometer gives signals particle by particle.
In a further experiment the target is human CTLA-4 (human) (UniProt P16410). Kind of experiment: FACS binding CHO-K1 cells expressing human CTLA-4.
human CTLA-4 (human), sequence (P16410 36-223): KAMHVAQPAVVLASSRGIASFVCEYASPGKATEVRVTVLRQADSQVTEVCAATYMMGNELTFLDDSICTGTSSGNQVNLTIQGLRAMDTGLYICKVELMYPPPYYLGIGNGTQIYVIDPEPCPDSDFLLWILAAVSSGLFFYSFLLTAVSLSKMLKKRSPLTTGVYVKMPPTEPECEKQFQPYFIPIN

CD47, sequence (Q08722 19-323): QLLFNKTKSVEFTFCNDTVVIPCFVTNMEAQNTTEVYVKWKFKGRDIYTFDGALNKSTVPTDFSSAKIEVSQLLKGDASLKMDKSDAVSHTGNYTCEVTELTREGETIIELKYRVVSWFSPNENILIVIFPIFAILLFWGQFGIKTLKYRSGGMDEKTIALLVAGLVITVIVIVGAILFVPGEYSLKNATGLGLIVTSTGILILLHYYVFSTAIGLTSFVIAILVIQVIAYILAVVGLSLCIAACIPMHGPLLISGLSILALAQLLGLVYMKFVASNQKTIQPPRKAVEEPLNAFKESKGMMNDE

On to human IgG, for which the EC50 (usually the concentration giving half of the maximal effect) with CD47 was 3.85 nM; with human CTLA-4 (human), 42.1 nM.
